Reference: paper doi:10.1101/2020.10.06.327809 (bioRxiv, 2020)

Target: the molecule itself
Assay: SEC

B1: SepF-His (H. volcanii SepF expressed in E. coli, plasmid pSVA3969) (natural protein, Haloferax volcanii, UniProt D4H018 1-118, looked up)
chain: MGIMSKILGGGGSRTTEDYVELDLDDFDTARGDAGLSVHIAEIGGQQDVIAIKDAVYDGNLVIADITRHTTSDSTMEHIIDDLRQVAREVDGDIVQKGDDQIVITPTGISISRQKLNG
stoichiometry N: 2
